For assay [1], the target named is BSA-crosslinked osteopontin peptide (BSA-CVDTYDGRGDSVVYGLRS) (Homo sapiens, UniProt P10451). As to the kind of experiment: ELISA binding to osteopontin peptide. The text has this: Based on the concentrations of the humanized 2K1 antibody and the chimera 2K1 antibody as determined in Example 13, the binding activities of the humanized 2K1 antibody and the chimera 2K1 antibody with osteopontin peptide (CVDTYDGRGDSVVYGLRS) (SEQ ID NO: 1) were compared with reference to the ELISA of Kon et al. (Journal of Cellular […]: 420–432 (2002)).
Dilution series of the humanized 2K1 antibody and the chimera 2K1 antibody reacted on a microtiter plate with BSA-crosslinked osteopontin peptide (BSA-CVDTYDGRGDSVVYGLRS)(SEQ ID NO: 1) immobilized thereon. Then, the antibodies bound to BSA-CVDTYDGRGDSVVYGLRS (SEQ ID NO: 1) reacted with protein A-HRP, and finally with TMB (Dojindo Corporate), to measure the absorbance at a wavelength of 450 nm.
Additionally, reaction on a plate with only BSA immobilized thereon as a negative control was also measured in the same manner.
As a negative control, additionally, the binding activity of the chimera 2K1 antibody to BSA (open circle) and the binding activity of the humanized 2K1 antibody to BSA (open square) are also shown.

The target in assay [2] is T1, biotinylated partial peptide GRGDSVVYGLR of human osteopontin (human).
T1 construct: Captured on a BIACORE sensor chip SA (23 RU)
T1 peptide: Biotin-GRGDSVVYGLR
Put plainly: SPR BIACORE-2000, biotinylated peptide on sensor chip SA, antibody as analyte, global fitting 1:1 (Langmuir). The method, then:
The KD value of the chimera 2K1 antibody was assayed in the following manner. First, a partial peptide GRGDSV-VYGLR (residues 7–17 of SEQ ID NO: 1) of the human osteopontin was biotinylated with a biotinylation kit (Dojindo Corporate). A sensor chip SA was set on BIA-CORE-2000, to bind 23 RU of a ligand (Bin-GRGDSV-VYGLR)(residues 7–17 of SEQ ID NO: 1). […] The data of these sensor grams were analyzed by global fitting at 1:1 (Langmuir) binding by a BIACORE analysis software BIA Evaluation Version 3.0. FIG. 6a is a sensor gram at various concentrations of the murine 2K1 antibody. FIG. 6b is a sensor gram at various concentrations of the chimera 2K1 antibody.
As the results of the measurement, the KD value of the murine 2K1 antibody was 1.2 ×10^-10 M, while the KD value of the chimera 2K1 antibody was 9.2 ×10^-11 M. No reduction of the affinity of the chimera 2K1 antibody was observed due to the chimera preparation of the murine 2K1 antibody.
Background: SPR reads the build-up and loss of mass on a sensor chip optically.

The target of another assay is T2, GST-OPN-c (human, UniProt P08515 1-218 = GST; P10451 1-287).
T2 construct: Isoform c of human osteopontin; made in E. coli; also called GST fusion protein of human osteopontin-c; not shown: vector-encoded junction between GST and OPN not described
T2 sequence (P08515 1-218, tags or fused parts left off): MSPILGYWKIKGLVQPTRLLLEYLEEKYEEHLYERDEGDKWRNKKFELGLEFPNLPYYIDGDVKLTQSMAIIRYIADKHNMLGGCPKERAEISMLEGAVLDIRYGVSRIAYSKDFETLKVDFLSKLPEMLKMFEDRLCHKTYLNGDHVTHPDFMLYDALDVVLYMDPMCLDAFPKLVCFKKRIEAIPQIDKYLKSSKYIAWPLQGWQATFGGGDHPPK
Put plainly: Western blotting. (A western blot detects proteins with antibodies after separation by electrophoresis.)

The next assay concerns the target T3, CHO/OPN-a (human, UniProt P10451 17-314, sugar chain-bound type (glycosylated)).
T3 construct: mature; also called full-length OPN
As to the kind of experiment: Western blotting.

In assay [3] the target is thrombin-cleaved OPN (human) (UniProt P10451). As to the kind of experiment: cell-based or functional assay.
Chain of thrombin-cleaved OPN (human) (P10451 17-168 limits assumed, form in doubt, chain 1 of 2): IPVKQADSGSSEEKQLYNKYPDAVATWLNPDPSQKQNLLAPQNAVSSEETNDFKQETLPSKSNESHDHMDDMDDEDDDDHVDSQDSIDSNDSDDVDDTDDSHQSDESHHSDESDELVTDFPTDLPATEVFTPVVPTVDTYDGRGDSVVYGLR
Chain of thrombin-cleaved OPN (human) (P10451 169-314 limits assumed, form in doubt, chain 2 of 2): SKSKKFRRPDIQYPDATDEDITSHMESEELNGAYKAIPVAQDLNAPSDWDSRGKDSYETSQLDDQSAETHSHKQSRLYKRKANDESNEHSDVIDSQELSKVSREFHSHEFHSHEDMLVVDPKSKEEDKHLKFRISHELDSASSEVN
Assay [4] concerns the target T4, BSA-crosslinked osteopontin peptide BSA-CVDTYDGRGDSVVYGLRS (human, also: crosslinked to BSA, linkage chemistry not given here).
T4 construct: Peptide carries an added N-terminal cysteine; immobilized on a microtiter plate as BSA conjugate; also called Peptide 1
T4 peptide: {BSA}-CVDTYDGRGDSVVYGLRS
Put plainly: ELISA on a plate with BSA-CVDTYDGRGDSVVYGLRS, detection with protein A-HRP and TMB, OD450. (In an ELISA, binding on a coated surface is turned into a signal by an enzyme label.)

The next assay has as its target T5, bovine serum albumin (bovine, UniProt P02769 25-607).
T5 construct: also called BSA
Put plainly: ELISA on a plate with BSA alone, detection with protein A-HRP and TMB, OD450.

No end group written: not given here. *: point of attachment. Biotin = O=C1N[C@H]2[C@H](CS[C@H]2CCCCC(=O)*)N1

T5 sequence (P02769 25-607 limits assumed): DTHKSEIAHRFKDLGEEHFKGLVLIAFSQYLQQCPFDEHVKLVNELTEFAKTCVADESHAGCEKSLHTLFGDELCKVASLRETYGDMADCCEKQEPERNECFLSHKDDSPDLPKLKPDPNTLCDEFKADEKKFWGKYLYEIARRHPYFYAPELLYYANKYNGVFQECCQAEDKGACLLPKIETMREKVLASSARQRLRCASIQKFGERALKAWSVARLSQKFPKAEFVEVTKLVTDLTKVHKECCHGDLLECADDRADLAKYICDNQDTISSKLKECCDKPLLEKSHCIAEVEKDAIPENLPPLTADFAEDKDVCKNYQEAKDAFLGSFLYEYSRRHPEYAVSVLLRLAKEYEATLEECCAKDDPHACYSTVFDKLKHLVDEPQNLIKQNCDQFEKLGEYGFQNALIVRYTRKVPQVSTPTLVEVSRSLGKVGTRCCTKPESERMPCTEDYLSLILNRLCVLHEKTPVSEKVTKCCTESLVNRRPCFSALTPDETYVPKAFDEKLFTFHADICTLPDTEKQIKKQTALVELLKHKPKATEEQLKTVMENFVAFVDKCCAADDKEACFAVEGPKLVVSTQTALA
T3 sequence (P10451 17-314): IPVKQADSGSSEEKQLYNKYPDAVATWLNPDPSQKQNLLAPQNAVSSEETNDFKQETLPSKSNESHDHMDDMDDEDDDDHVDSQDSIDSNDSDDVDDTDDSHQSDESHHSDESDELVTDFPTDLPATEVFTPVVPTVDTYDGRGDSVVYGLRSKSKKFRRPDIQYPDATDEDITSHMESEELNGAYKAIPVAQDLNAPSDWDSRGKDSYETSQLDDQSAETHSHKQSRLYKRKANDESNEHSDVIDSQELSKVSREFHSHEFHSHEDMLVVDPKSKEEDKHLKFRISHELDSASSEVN

B1: humanized 2K1 antibody: humanized antibody with CDRs of murine 2K1; VH SEQ ID NO: 28, VL SEQ ID NO: 30, human Igγ1/Igκ (antibody, V domains shown)
VH: MDWTWRVFCLLAVAPGAHSQVQLVQSGAEVKKPGSSVKVSCKASGGTFSDYEMHWVRQAPGQGLEWMGAIHPGRGGTAYNQKFKGRVTITADKSTSTAYMELSSLRSEDTAVYYCARITGYFDVWGQGTTVTVSS
VL: MGWSCIILFLVATATGVHSDVVMTQSPLSLPVTLGQPASISCRSSQSIVHSNGNTYLEWYLQKPGQSPQLLIYKVSNRFSGVPDRFSGSGSGTDFTLKISRVEAEDVGVYYCFQGSHVPLTFGQGTKLEIKR
modifications: human IgG1/kappa constant regions
With B1, the “antigen binding activity compared with the original murine 2K1 antibody” value in assay [1] is given as “identical to that of the original murine 2K1 antibody”. For the same molecule, the “binding activity to BSA-CVDTYDGRGDSVVYGLRS” value in assay [1] (ELISA, absorbance 450 nm, FIG. 13) is given as “had binding activities”. The “binding activity to BSA (negative control plate)” value in assay [1] (ELISA, plate with only BSA immobilized) was “not to BSA”. The “comparison of binding activities of both antibodies to BSA-CVDTYDGRGDSVVYGLRS” value in assay [1] (humanized versus chimera 2K1 antibody) is “at the same level”.

B2: murine monoclonal antibody 2K1 (antibody, V domains shown)
VH: QVQLQQSGAELVRPGASVKLSCKALGYTFTDYEMHWVKQTPVHGLEWIGAIHPGRGGTAYNQKFKGKATLTADKSSSTAYMELSSLTSEDSAVYYCTRITGYFDVWGAGTTVTVSS
VL: DVLMTQTPLSLPVSLGDQASISCRSSQSIVHSNGNTYLEWYLQKPGQSPKLLIYKVSNRFSGVPDRFSGSGSGTDFTLKISRVEAEDLGVYYCFQGSHVPLTFGAGTKLELKR
notes: also called murine 2K1 antibody; murine antibody 2K1
Molecule B2 yielded a Kd in assay [2] of 0.12 nM. In addition, the binding result with GST-OPN-c is given as “binds”. In addition, the binding result with CHO/OPN-a is recorded as “binds”. Also, in assay [3], the Mean migrating cell counts per 1 mm^3; monocyte; thrombin-cleaved OPN 10 µg/mL, murine 2K1 antibody 0.4 µg/mL (cells per 1 mm^3) was 258; the Mean migrating cell counts per 1 mm^3; monocyte; thrombin-cleaved OPN 10 µg/mL, murine 2K1 antibody 2 µg/mL (cells per 1 mm^3) was 257; the Mean migrating cell counts per 1 mm^3; monocyte; thrombin-cleaved OPN 10 µg/mL, murine 2K1 antibody 10 µg/mL (cells per 1 mm^3) came to 160; the Mean migrating cell counts per 1 mm^3; monocyte; thrombin-cleaved OPN 10 µg/mL, murine 2K1 antibody 50 µg/mL (cells per 1 mm^3) worked out at 75. In assay [3], the Mean migrating cell counts per 1 mm^3; neutrophil; thrombin-cleaved OPN 10 µg/mL, murine 2K1 antibody 0.4 µg/mL (cells per 1 mm^3) was 567; the Mean migrating cell counts per 1 mm^3; neutrophil; thrombin-cleaved OPN 10 µg/mL, murine 2K1 antibody 2 µg/mL (cells per 1 mm^3) turned out to be 550; the Mean migrating cell counts per 1 mm^3; neutrophil; thrombin-cleaved OPN 10 µg/mL, murine 2K1 antibody 10 µg/mL (cells per 1 mm^3) was found to be 450; the Mean migrating cell counts per 1 mm^3; neutrophil; thrombin-cleaved OPN 10 µg/mL, murine 2K1 antibody 50 µg/mL (cells per 1 mm^3) is 427.

B3: humanized 2K1 antibody (antibody, V domains shown)
VH: QVQLVQSGAEVKKPGSSVKVSCKASGGTFSDYEMHWVRQAPGQGLEWMGAIHPGRGGTAYNQKFKGRVTITADKSTSTAYMELSSLRSEDTAVYYCARITGYFDVWGQGTTVTVSS
VL: DVVMTQSPLSLPVTLGQPASISCRSSQSIVHSNGNTYLEWYLQKPGQSPQLLIYKVSNRFSGVPDRFSGSGSGTDFTLKISRVEAEDVGVYYCFQGSHVPLTFGQGTKLEIKR
notes: Human Igγ1 / Igκ constant regions (vectors AG-γ1 and AG-κ); Tested as CHO-DG44 culture supernatant; also called R2K1 antibody
For B3, the binding result in assay [4] is listed as “binds”; in the assay with bovine serum albumin it was “no binding (tested: 50 ng/ml)”.

B4: mouse-human chimera 2K1 antibody (antibody, V domains shown)
VH: QVQLQQSGAELVRPGASVKLSCKALGYTFTDYEMHWVKQTPVHGLEWIGAIHPGRGGTAYNQKFKGKATLTADKSSSTAYMELSSLTSEDSAVYYCTRITGYFDVWGAGTTVTVSS
VL: DVLMTQTPLSLPVSLGDQASISCRSSQSIVHSNGNTYLEWYLQKPGQSPKLLIYKVSNRFSGVPDRFSGSGSGTDFTLKISRVEAEDLGVYYCFQGSHVPLTFGAGTKLELKR
notes: Expressed in CHO-DG44; also called C2K1 antibody; 2K1 chimera antibody
Consider B4, for which the binding result in assay [4] is on record as “binds”; with bovine serum albumin, “no binding (tested: 50 ng/ml)”. In assay [2], the dissociation constant (Kd) stood at 0.092 nM.

In general, Kd refers to the constant that tells how readily two partners part at equilibrium. The low end stands for a tighter complex, the high end for a looser complex.

The record behind these values is patent publication US7241873B2, “Recombinant anti-osteopontin antibody and use thereof” (Juridical Foundation the Chemo-sero-therapeutic Research …, priority 2001, dated 2007).
